For 1 substance, activity (units per gram wet cells) results are on record in patent US20040175816.

This series concerns the target T1, OkrAI restriction endonuclease (Oceanospirillum kriegii) (UniProt E2JKI3).
T1 sequence: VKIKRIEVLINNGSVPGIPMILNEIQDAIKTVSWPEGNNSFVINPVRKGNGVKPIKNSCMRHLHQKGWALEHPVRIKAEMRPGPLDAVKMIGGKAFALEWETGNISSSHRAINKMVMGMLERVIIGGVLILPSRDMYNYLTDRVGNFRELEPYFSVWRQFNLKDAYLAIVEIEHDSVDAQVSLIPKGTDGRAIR
Briefly: cleavage_in_vitro. Conditions: approximate yield, assayed in cell extract; isoschizomer of BamHI.

In turn, lambda phage DNA registered an activity (units per gram wet cells) of 5e+06.
